Source: the supplement of paper PMC10724198
± gives the standard deviation of the averaged measurements.

Assays:
Saccharomyces cerevisiae [1] = assay: protein stability index of tFT-peptide fusion (C-terminal peptide) (PSI (0-1 scale)); higher = more stable (slower turnover); settings: genetic background: wild type; temperature: 30 C
Saccharomyces cerevisiae [2] = assay: as above
Description: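 MPS profiling in S. cerevisiae of the tFT-X12 degron library: putative degron peptides plus stable controls, 12 aa, fused to the C-terminus of a sfGFP-mCherry timer. Cells are FACS-sorted into 8 mCherry/sfGFP bins and deep-sequenced. PSI runs from 0 (unstable) to 1 (stable). Backgrounds are wild type, das1Δ and doa10Δ at 30 °C, and wild type, das1Δ, cdc34-1 and cdc53-1 at 37 °C; 2-3 technical replicates each.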

[3] = genetic background: cdc34-1, temperature: 37 C
[4] = genetic background: cdc53-1, temperature: 37 C
[5] = genetic background: das1 deletion, temperature: 30 C
[6] = genetic background: das1 deletion, temperature: 37 C
[7] = genetic background: doa10 deletion, temperature: 30 C
[8] = genetic background: wild type, temperature: 30 C
[9] = genetic background: wild type, temperature: 37 C
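Also: PSI is a weighted mean of sequencing reads over stability bins, variants kept only with over 10 reads, mCherry proximal and sfGFP distal, peptide attached via GGGS linker.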

Sequence | protein stability index (Saccharomyces cerevisiae [1]) | protein stability index (Saccharomyces cerevisiae [2]; [3]) | protein stability index (Saccharomyces cerevisiae [2]; [4]) | protein stability index (Saccharomyces cerevisiae [2]; [5]) | protein stability index (Saccharomyces cerevisiae [2]; [6]) | protein stability index (Saccharomyces cerevisiae [2]; [7]) | protein stability index (Saccharomyces cerevisiae [2]; [8]) | protein stability index (Saccharomyces cerevisiae [2]; [9])
SINKLLILIKSI | 0.13 ± 0.028 | 0.429 ± 0.026 | 0.618 ± 0.028 | 0.525 ± 0.03 | 0.629 ± 0.018 | 0.0798 ± 0.019 | 0.0738 ± 0.0087 | 0.112 ± 0.069
SIWVGSRFRWVV | 0.35 ± 0.062 | 0.642 ± 0.0088 | 0.7361 ± 0.0011 | 0.665 ± 0.034 | 0.7748 ± 0.0015 | 0.134 ± 0.017 | 0.134 ± 0.021 | 0.344 ± 0.052
SLCELRCLLRVG | 0.473 ± 0.021 | 0.573 ± 0.027 | 0.636 ± 0.022 | 0.522 ± 0.017 | 0.631 ± 0.0023 | 0.471 ± 0.018 | 0.481 ± 0.018 | 0.606 ± 0.013
SLCSSVQVWSVV | 0.693 ± 0.027 | 0.7 ± 0.049 | 0.763 ± 0.024 | 0.612 ± 0.013 | 0.732 ± 0.011 | 0.5868 ± 0.0032 | 0.634 ± 0.037 | 0.716 ± 0.011
SLLFPLPRPLLD | 0.731 ± 0.016 | 0.7 ± 0.013 | 0.754 ± 0.018 | 0.677 ± 0.015 | 0.719 ± 0.016 | 0.686 ± 0.014 | 0.672 ± 0.024 | 0.7183 ± 0.005
SLRSRSLRCRLS | 0.38 ± 0.005 | 0.619 ± 0.056 | 0.755 ± 0.024 | 0.723 ± 0.0081 | 0.749 ± 0.031 | 0.288 ± 0.0071 | 0.297 ± 0.0095 | 0.489 ± 0.031
SPCLPRGVLFLA | 0.367 ± 0.0063 | 0.603 ± 0.055 | 0.7253 ± 0.004 | 0.667 ± 0.031 | 0.716 ± 0.005 | 0.2729 ± 0.0022 | 0.297 ± 0.022 | 0.437 ± 0.0099
SPCLSWTLVLVL | 0.302 ± 0.037 | 0.275 ± 0.013 | 0.324 ± 0.0061 | 0.215 ± 0.026 | 0.407 ± 0.0077 | 0.195 ± 0.0034 | 0.203 ± 0.016 | 0.345 ± 0.0051
SRLMLPLSPLVC | 0.379 ± 0.045 | 0.41 ± 0.011 | 0.455 ± 0.0065 | 0.301 ± 0.045 | 0.5021 ± 0.0044 | 0.2762 ± 0.0016 | 0.313 ± 0.016 | 0.465 ± 0.0065
SRPLYVMICTRV | 0.386 ± 0.0086 | 0.4376 ± 0.00075 | 0.522 ± 0.035 | 0.327 ± 0.024 | 0.558 ± 0.018 | 0.246 ± 0.0034 | 0.287 ± 0.018 | 0.503 ± 0.022
